Measurements published in article PMC3699631, “Posttranslational Modifications of the Histone 3 Tail and Their Impact on the Activity of Histone Lysine Demethylases In Vitro” (PLoS ONE, 2013).
Entries after “also recorded” stand apart in the source; their conditions may differ.

Target: T1, human FL-KDM4C (Homo sapiens, UniProt Q9H3R0)
T1 construct: along with the full length FL- KDM4C and FL-KDM4A using various synthetic histone tail peptides as substrates; His6 (N); FLAG (N); made in house; host or cells: High Five (Trichoplusia ni) insect cells, baculovirus
T1 sequence (Q9H3R0 1-1056): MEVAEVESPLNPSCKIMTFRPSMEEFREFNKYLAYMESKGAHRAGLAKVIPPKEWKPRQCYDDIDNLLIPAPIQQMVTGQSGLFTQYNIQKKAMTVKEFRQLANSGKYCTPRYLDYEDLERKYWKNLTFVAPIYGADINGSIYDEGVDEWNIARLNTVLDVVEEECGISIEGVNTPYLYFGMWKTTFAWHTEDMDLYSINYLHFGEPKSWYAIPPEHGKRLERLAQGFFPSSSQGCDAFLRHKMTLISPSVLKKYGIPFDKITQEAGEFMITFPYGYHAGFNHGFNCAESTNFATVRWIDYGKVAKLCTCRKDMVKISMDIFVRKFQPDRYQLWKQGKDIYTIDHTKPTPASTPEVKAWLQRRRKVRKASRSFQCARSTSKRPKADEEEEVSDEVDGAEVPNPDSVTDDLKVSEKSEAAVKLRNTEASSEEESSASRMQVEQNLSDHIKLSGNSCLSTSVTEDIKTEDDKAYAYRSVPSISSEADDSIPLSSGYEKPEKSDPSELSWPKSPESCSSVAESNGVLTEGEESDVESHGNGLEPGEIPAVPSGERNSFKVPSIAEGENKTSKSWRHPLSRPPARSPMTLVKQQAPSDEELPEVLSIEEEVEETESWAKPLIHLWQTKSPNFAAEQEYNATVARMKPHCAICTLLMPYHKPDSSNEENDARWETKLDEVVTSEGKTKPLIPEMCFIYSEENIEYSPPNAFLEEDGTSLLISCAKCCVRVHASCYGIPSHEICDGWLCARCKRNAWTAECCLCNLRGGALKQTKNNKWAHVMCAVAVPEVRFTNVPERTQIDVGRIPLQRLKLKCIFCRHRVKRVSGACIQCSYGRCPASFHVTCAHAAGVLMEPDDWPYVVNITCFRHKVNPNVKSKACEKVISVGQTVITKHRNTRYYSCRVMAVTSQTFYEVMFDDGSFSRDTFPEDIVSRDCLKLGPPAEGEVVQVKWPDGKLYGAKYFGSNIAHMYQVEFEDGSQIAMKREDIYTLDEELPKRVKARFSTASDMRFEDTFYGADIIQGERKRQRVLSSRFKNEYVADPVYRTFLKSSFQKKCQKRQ
Experiment: FDH-assay enzyme kinetics of H3 peptide demethylation, full length KDM4C
Type: biochemical
Parameters: key to K m / k cat / k cat /K m: 0 means no demethylation could be detected
Details: for demethylation / catalytic activity (in words) / K m / k cat / k cat /K m: FDH-assay; for K m: 50 mM HEPES (pH 7.5), 50 mM NaCl, 50 µM FeSO4, 500 µM α-KG, 500 µM ascorbate, 2 mM NAD, substrate 10–1000 µM, NADH fluorescence 15–30 minutes; for K m / k cat: triplicate; for k cat: pH 7.5, NADH fluorescence; for k cat /K m: pH 7.5, triplicate
Protocol: The enzyme kinetics were measured using a Formaldehyde DeHydrogenase Assay (FDH-Assay) and the demethylation of substrates was confirmed when possible by MALDI-TOF-MS, see File S1 for details. The test solution contained 50 mM HEPES (pH 7.5), 50 mM NaCl, 50 µM FeSO4, 500 µM α-KG, 500 µM ascorbate, 2 mM NAD, approximately 0.05 unit of FDH and e.g. 4.88 µM KDM4C (enzyme concentration varied between batches). The reference solution was comprised of the same except substrate. The assay was initiated by adding various concentrations of H3 peptide substrates e.g. H3(1–24)K9me3 (10–1000 µM) and the increase in NADH fluorescence was measured over 15–30 minutes in 30 second intervals. Data analysis and kinetic values were obtained using programs Excel and GraphPad Prism® 5.0. For details, see File S1.
The standard deviations for k cat/K m were calculated using the statistic law of propagation of errors. Standard errors for Michaelis-Menten Kinetics were automatically given in GraphPad Prism®, with a 95% confidence interval. All enzyme kinetic curves were done in triplicate unless otherwise stated.
Test for activity of enzyme using the fluorescence FDH assay, determination of Vmax and Km of enzymes with substrate, expression and purification of cc-KDM4A and cc-KDM4C software and parameters for the FDH coupled assay, see Lohse et al.^21
Recombinant baculoviridae encoding the full Open Reading Frame (ORF) of FL-KDM4A and FL-KDM4C were generously donated from the Biotech Research and Innovation Centre (BRIC), University of Copenhagen, Denmark. Recombinant protein was expressed by adding High Titer Stocks to High Five (Trichopulsia ni) insect cells in suspension culture. The cell cultures were harvested by centrifugation after ~ 60 hours and the cells were resuspended in hypotonic buffer (25 mM Hepes-KOH, pH 7.7, 1.5 mM MgCl, 5 mM KCl) supplemented with one protease inhibitor cocktail tablet per 500 ml expression (Roche, EDTA-free). The resuspended cells were frozen at -20 °C.
Both proteins were purified by IMAC using Talon FF (Clontech) cobalt resin according to the following protocol; resuspended cells were thawed on ice, 100 ml hypotonic buffer was added per 500 ml expression volume and the cells were incubated with stirring for 30 min. at 4 °C, followed by a brief (30 s per 500 ml culture volume) sonication. β-mercaptoethanol (BME, 2 mM final concentration), Triton X-100 (0.2 % final concentration) and NaCl (300 mM final concentration) were added and the cell suspension was stirred for another 30 min at 4 °C. The lysate was cleared by centrifugation at 50.000 g for 60 minutes. The cleared lysates were adjusted to 5 mM imidazole and incubated with Talon resin (1 ml /500 ml expression) for 60 minutes. The resin was allowed to sediment, the lysate removed and the resin was transferred to PD-10 gravity flow columns (GE Healthcare). The resin was washed with 10 column volumes of binding buffer (50 mM Hepes-KOH, pH 7.7, 300 mM NaCl, 5 mM imidazole, 10% glycerol, 0.05 % Triton X-100, 2 mM BME) and eluted with 2 x 2.5 ml elution buffer (50 mM Hepes-KOH, pH 7.7, 300 mM NaCl, 100 mM imidazole, 10 % glycerol, 0.05 % Triton X-100, 2 mM BME). Each eluted fraction has its buffer changed to 50 mM Hepes pH 7.5, 300 mM NaCl, 10 % glycerol using a PD-10 desalting column. The protein was concentrated to 6-7 mg/ml (FL-KDM4A) or 10-12 mg/ml (FL-KDM4C). Despite the buffer change it is likely that small amounts of Triton X-100 remained in the protein samples. Triton X-100 has a significant absorbance at 280 nm, so the protein concentration was determined by Bradford assay using a BSA standard curve. The protein purity was approximately 70 % as judged from SDS-PAGE. The concentrated protein was aliquoted and stored at -80 °C until assays were performed.
The standard deviations for kcat/ Km were calculated using the statistic law of propagation of errors. […]

[1] = SD by propagation of errors, unit: (min^−1 * µM^−1) * 10^3

Substance	demethylation / catalytic activity (in words)	K m	k cat	k cat /K m [1]	demethylation / catalytic activity (in words) (listed as H3K9me3)	k cat /K m (figures) [min^-1 * μM^-1 * 10^3]	fold increase in k cat/K m (compared to H3(1–24)K9me3) [fold]
H3(1–24)K9me3T11(ph): H3(1–24)K9me3 with phosphorylation of threonine 11	no detectable turnover	0	0	0	–	–	–
H3(1–24)K9me3: truncated histone tail, 24 first amino acids from the N-terminus of H3, trimethylated lysine 9; control peptide	–	57±5	0.7±0.1	12±2	preference for the H3K9me3 over the H3K9me2; also recorded: an order of magnitude higher activity towards trimethylated H3K9me3 compared to dimethylated H3K9me2 substrates	12 ± 2	–
H3(1–24)K9me2: truncated histone tail, 24 first amino acids from the N-terminus of H3, dimethylated lysine 9	–	79±10	–	1.3±0.2	–	2 ± 0.4	–
H3(1–24)K4me3K9me3: bis-tri-methylated substrate, trimethylated K4 in combination with H3K9me3	a small difference in activity between H3(1–24)K9me3 and H3(1–24)K4me3-K9me3	42±3	1.1±0.2	24±3	–	24 ± 3	2
